Key:
Assay in all cases: photometric initial rates, Michaelis-Menten fit
jrPPO2 = target: T1, jrPPO2 (Juglans regia, UniProt A0A2I4DDQ0, D361N/F398L/S401P/D582N); type: biochemical; details: pH 6.0, 50 mM sodium phosphate, 2.5 mM SDS as activator, 25 °C
T1 construct: gene LOC108979139; latent enzyme (active domain plus C-terminal domain, no transit peptide), E. coli, pGEX-6P-1, N-terminal GST tag (absent by mass)
Excerpt: (§1) photometric initial rates, Michaelis-Menten fit on jrPPO2

jrPPO1 = target: T2, jrPPO1 (Juglans regia, UniProt C0LU17); type: biochemical; details: pH 6.0, 50 mM sodium phosphate, 2.0 mM SDS as activator, 25 °C
T2 construct: gene PPO1; latent enzyme (active domain plus C-terminal domain, no transit peptide), expressed in E. coli from pGEX-6P-1 with N-terminal GST tag (tag absent by mass)
T2 sequence (C0LU17 entry or part of it): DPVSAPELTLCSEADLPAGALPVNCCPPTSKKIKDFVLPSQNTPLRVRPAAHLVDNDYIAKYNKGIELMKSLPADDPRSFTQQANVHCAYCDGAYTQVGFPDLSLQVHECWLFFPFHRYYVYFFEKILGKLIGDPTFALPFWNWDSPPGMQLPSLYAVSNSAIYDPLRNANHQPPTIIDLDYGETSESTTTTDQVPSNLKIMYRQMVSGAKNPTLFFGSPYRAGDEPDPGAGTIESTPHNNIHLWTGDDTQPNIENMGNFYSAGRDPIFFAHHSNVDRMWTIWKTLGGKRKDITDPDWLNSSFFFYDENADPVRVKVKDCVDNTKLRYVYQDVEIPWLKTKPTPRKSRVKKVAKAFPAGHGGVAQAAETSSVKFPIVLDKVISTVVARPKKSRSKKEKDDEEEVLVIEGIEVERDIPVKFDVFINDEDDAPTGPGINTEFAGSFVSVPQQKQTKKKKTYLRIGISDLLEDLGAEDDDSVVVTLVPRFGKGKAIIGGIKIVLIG
Excerpt: (§2) photometric initial rates, Michaelis-Menten fit on jrPPO1

[1] = substrate: NCCc1ccc(O)c(O)c1; type: biochemical, Juglans regia; details: pH 6.0, 50 mM sodium phosphate, 2.0 mM SDS as activator, 25 °C
Excerpt: as §2

[2] = substrate: O=C(O)/C=C/c1ccc(O)cc1; type: biochemical, Juglans regia; details: pH 6.0, 50 mM sodium phosphate, 2.5 mM SDS as activator, 25 °C
Excerpt: as §1

[3] = substrate: O=C(O)c1cc(O)c(O)c(O)c1; type: biochemical, Juglans regia; details: pH 6.0, 50 mM sodium phosphate, 2.5 mM SDS as activator, 25 °C
Excerpt: as §1

[4] = substrate: NCCc1ccc(O)c(O)c1; type: biochemical, Juglans regia; details: pH 6.0, 50 mM sodium phosphate, 2.5 mM SDS as activator, 25 °C
Excerpt: as §1

[5] = substrate: CCOC(=O)c1cc(O)c(O)c(O)c1; type: biochemical, Juglans regia; details: pH 6.0, 50 mM sodium phosphate, 2.5 mM SDS as activator, 25 °C
Excerpt: as §1

[6] = substrate: O=C(O)Cc1ccc(O)cc1; type: biochemical, Juglans regia; details: pH 6.0, 50 mM sodium phosphate, 2.5 mM SDS as activator, 25 °C
Excerpt: as §1

[7] = substrate: O=C(O)c1ccc(O)c(O)c1; type: biochemical, Juglans regia; details: pH 6.0, 50 mM sodium phosphate, 2.5 mM SDS as activator, 25 °C
Excerpt: as §1

[8] = substrate: N[C@@H](Cc1ccc(O)c(O)c1)C(=O)O; type: biochemical, Juglans regia; details: pH 6.0, 50 mM sodium phosphate, 2.5 mM SDS as activator, 25 °C
Excerpt: as §1

[9] = substrate: O=C(O)/C=C/c1ccc(O)c(O)c1; type: biochemical, Juglans regia; details: pH 6.0, 50 mM sodium phosphate, 2.5 mM SDS as activator, 25 °C
Excerpt: as §1

[10] = substrate: O=C1c2c(O)cc(O)cc2O[C@H](c2ccc(O)c(O)c2)[C@H]1O; type: biochemical, Juglans regia; details: pH 6.0, 50 mM sodium phosphate, 2.5 mM SDS as activator, 10% DMSO, 25 °C
Excerpt: as §1

[11] = substrate: NCCc1ccc(O)cc1; type: biochemical, Juglans regia; details: pH 6.0, 50 mM sodium phosphate, 2.5 mM SDS as activator, 25 °C
Excerpt: as §1

## Oc1cccc(O)c1O [compound 1, Pyrogallol]
jrPPO2
  Km: 1 ± 0.12 mM
jrPPO1
  Km: 1.2 ± 0.13 mM

B1: jrPPO1 (Juglans regia; N340G) (protein)
chain: DPVSAPELTLCSEADLPAGALPVNCCPPTSKKIKDFVLPSQNTPLRVRPAAHLVDNDYIAKYNKGIELMKSLPADDPRSFTQQANVHCAYCDGAYTQVGFPDLSLQVHECWLFFPFHRYYVYFFEKILGKLIGDPTFALPFWNWDSPPGMQLPSLYAVSNSAIYDPLRNANHQPPTIIDLDYGETSESTTTTDQVPSNLKIMYRQMVSGAKNPTLFFGSPYRAGDEPDPGAGTIESTPHGNIHLWTGDDTQPNIENMGNFYSAGRDPIFFAHHSNVDRMWTIWKTLGGKRKDITDPDWLNSSFFFYDENADPVRVKVKDCVDNTKLRYVYQDVEIPWLKTKPTPRKSRVKKVAKAFPAGHGGVAQAAETSSVKFPIVLDKVISTVVARPKKSRSKKEKDDEEEVLVIEGIEVERDIPVKFDVFINDEDDAPTGPGINTEFAGSFVSVPQQKQTKKKKTYLRIGISDLLEDLGAEDDDSVVVTLVPRFGKGKAIIGGIKIVLIG
notes: latent enzyme (active domain plus C-terminal domain, no transit peptide), expressed in E. coli from pGEX-6P-1 with N-terminal GST tag (tag absent by mass)
[1]
  Km: 0.49 ± 0.07 mM
  kcat: 300 ± 16.5 s⁻¹
  kcat/Km: 612000 ± 93700 M⁻¹ s⁻¹

B2: jrPPO2 (Juglans regia; D361N/D582N/F398L/S401P) (protein)
chain: APVSAPDITKCGKADFPAGAKPTNCCPPPSTKIIDFKLPTKNSPLRVRPAAHLADKEYIAKYNKAIELMKALPADDPRNFTQQANVHCAYCDGAYEQVGFPNLDLQVHNSWLFFPFHRYYLYFYEKILGKLIGDPTFALPFWNWDAPAGMQLPAMYANPKSSLYDALRNANHQPPTLMDLDYNGTDEETTSQDQLSANLSIMYRQMVSNGKNAKLFLGSAYRAGDEPDPGAGSIENIPHGPVHIWTGDNTQPNLENMGNFYSAGRDPIFFAHHSNVDRMWSIWKTLGGKRTDLTEPDWLNAGFLFYDENGQAVRVKVKDCLDTTKLGYVYQDVDLPWLKSKPTRKSKLKKVAKFFHLGHQGDVAIAAETSPSVNFPIVLDKVISTVVARPRKSRSKKEKEDEEEVLVIGAIEFDRDAPVKFDVFINDEDDSPTTRPDKTEFAGSFVNVPHKHKHGKKMNTCLRLGISDLLEDLDAENDDTIVVTLVPRYGKGLASINGIKIELLD
notes: latent enzyme (active domain plus C-terminal domain, no transit peptide), E. coli, pGEX-6P-1, N-terminal GST tag (absent by mass)
[2]
  Km: 0.94 ± 0.12 mM
  kcat: 0.37 ± 0.02 s⁻¹
  kcat/Km: 390 ± 50 M⁻¹ s⁻¹
[3]
  Km: 0.18 ± 0.04 mM
  kcat: 2.07 ± 0.18 s⁻¹
  kcat/Km: 11500 ± 2740 M⁻¹ s⁻¹
[4]
  Km: 0.79 ± 0.17 mM
  kcat: 186 ± 19.1 s⁻¹
  kcat/Km: 235000 ± 56100 M⁻¹ s⁻¹
[5]
  Km: 6.60 ± 0.79 mM
  kcat: 59.5 ± 3.89 s⁻¹
  kcat/Km: 9020 ± 1220 M⁻¹ s⁻¹
[6]
  Km: 4.43 ± 0.55 mM
  kcat: 32.3 ± 2.18 s⁻¹
  kcat/Km: 7290 ± 1030 M⁻¹ s⁻¹
[7]
  Km: 0.09 ± 0.02 mM
  kcat: 9.84 ± 0.52 s⁻¹
  kcat/Km: 109000 ± 25000 M⁻¹ s⁻¹
[8]
  Km: 5.66 ± 0.70 mM
  kcat: 132 ± 7.05 s⁻¹
  kcat/Km: 23300 ± 3140 M⁻¹ s⁻¹
[9]
  Km: 0.21 ± 0.02 mM
  kcat: 8.37 ± 0.2 s⁻¹
  kcat/Km: 39900 ± 3910 M⁻¹ s⁻¹
[10]
  Km: 0.92 ± 0.15 mM
  kcat: 19.6 ± 2.04 s⁻¹
  kcat/Km: 21300 ± 4120 M⁻¹ s⁻¹
[11]
  Km: 0.49 ± 0.11 mM
  kcat: 9.14 ± 0.83 s⁻¹
  kcat/Km: 18700 ± 4650 M⁻¹ s⁻¹

B3: jrPPO2 (Juglans regia; D361N/D582N/F398L/G345N/S401P) (protein)
chain: APVSAPDITKCGKADFPAGAKPTNCCPPPSTKIIDFKLPTKNSPLRVRPAAHLADKEYIAKYNKAIELMKALPADDPRNFTQQANVHCAYCDGAYEQVGFPNLDLQVHNSWLFFPFHRYYLYFYEKILGKLIGDPTFALPFWNWDAPAGMQLPAMYANPKSSLYDALRNANHQPPTLMDLDYNGTDEETTSQDQLSANLSIMYRQMVSNGKNAKLFLGSAYRAGDEPDPGAGSIENIPHNPVHIWTGDNTQPNLENMGNFYSAGRDPIFFAHHSNVDRMWSIWKTLGGKRTDLTEPDWLNAGFLFYDENGQAVRVKVKDCLDTTKLGYVYQDVDLPWLKSKPTRKSKLKKVAKFFHLGHQGDVAIAAETSPSVNFPIVLDKVISTVVARPRKSRSKKEKEDEEEVLVIGAIEFDRDAPVKFDVFINDEDDSPTTRPDKTEFAGSFVNVPHKHKHGKKMNTCLRLGISDLLEDLDAENDDTIVVTLVPRYGKGLASINGIKIELLD
notes: as for B2
[11]
  Km: 0.21 ± 0.06 mM
  kcat: 10.9 ± 0.71 s⁻¹
  kcat/Km: 51900 ± 15300 M⁻¹ s⁻¹
